Key:
[1] = target: T1, human Nectin 1 on CHO cells (human, UniProt Q15223 31-517); assay: flow cytometry on CHO cells expressing human Nectin 1
T1 sequence: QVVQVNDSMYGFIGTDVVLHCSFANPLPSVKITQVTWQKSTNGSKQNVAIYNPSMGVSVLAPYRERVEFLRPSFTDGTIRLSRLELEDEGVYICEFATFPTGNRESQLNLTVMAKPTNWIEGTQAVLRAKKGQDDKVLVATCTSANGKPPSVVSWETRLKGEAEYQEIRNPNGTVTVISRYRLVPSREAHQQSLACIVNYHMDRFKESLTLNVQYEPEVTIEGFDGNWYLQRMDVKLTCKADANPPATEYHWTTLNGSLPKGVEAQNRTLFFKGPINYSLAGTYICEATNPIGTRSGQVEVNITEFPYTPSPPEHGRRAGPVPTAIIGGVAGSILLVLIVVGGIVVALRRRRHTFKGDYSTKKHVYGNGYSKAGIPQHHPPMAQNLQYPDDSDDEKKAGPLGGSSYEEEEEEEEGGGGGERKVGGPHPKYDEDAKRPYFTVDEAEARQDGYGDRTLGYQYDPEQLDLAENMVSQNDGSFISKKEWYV
Experimental: (§1) Anti-Nectin-4 antibodies were tested by flow cytometry for binding to different CHO cell lines made to express respectively the human Nectin 1, Nectin 2, Nectin 3 and PVR proteins. The expression of each cell lines was controlled and validated with known respectively the anti-human Nectin1, anti-human Nectin2, anti-human Nectin3 and anti-human PVR antibodies. The mature amino acid sequence of the proteins expressed by the cells were as follows:
(§2) Nectin 1, Nectin 2, Nectin 3 and PVR proteins as in Example 12. […] Epitope mapping was carried out by assessing competition for binding to Nectin-4 by SPR as in Example 14.

[2] = target: T2, human Nectin-4 Mutant 7bis (human, UniProt Q96NY8 32-510); assay: binding to HEK-293T cells transfected with the Nectin-4 mutant
T2 construct: Expressed on transfected HEK-293T cells; also called A72P/G73N/K197T/S199A
T2 chain: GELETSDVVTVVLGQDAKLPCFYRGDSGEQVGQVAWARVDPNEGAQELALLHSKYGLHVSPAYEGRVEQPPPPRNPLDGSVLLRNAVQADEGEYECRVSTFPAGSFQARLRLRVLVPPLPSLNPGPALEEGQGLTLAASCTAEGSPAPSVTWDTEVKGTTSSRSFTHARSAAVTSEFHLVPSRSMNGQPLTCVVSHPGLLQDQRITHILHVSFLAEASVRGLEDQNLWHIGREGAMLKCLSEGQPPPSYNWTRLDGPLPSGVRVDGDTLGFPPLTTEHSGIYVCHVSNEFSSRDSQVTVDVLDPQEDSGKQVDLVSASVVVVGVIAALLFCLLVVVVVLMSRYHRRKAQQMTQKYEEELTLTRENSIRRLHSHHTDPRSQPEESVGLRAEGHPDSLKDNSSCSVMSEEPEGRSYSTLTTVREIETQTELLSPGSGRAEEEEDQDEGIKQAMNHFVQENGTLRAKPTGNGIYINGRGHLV

human Nectin-4 Mutant 7 = target: T3, human Nectin-4 Mutant 7 (human, UniProt Q96NY8 32-510); assay: as above
T3 construct: Expressed on transfected HEK-293T cells; also called S195A/K197T/S199A
T3 chain: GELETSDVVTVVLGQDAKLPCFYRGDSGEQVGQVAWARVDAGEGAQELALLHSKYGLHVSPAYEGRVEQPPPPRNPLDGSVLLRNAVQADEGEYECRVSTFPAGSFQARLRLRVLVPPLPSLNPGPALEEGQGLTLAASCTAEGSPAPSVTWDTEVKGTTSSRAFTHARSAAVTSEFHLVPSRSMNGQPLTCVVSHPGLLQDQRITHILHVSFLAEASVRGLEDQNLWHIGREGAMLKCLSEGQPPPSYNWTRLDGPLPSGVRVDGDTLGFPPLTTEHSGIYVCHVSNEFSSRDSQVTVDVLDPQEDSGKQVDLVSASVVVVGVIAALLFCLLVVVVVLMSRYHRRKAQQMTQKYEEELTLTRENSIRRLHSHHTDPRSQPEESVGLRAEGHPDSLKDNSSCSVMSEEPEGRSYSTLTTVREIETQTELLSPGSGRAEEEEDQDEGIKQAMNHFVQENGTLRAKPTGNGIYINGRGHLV

[3] = target: T4, wild-type human Nectin-4 on the CHO huNectin4 Cl.3C8 cell line (human, UniProt Q96NY8 32-510); assay: flow cytometry on wild-type human Nectin-4 cell line
T4 construct: also called whole Nectin-4 protein; huNectin4 CI.3C8
T4 sequence: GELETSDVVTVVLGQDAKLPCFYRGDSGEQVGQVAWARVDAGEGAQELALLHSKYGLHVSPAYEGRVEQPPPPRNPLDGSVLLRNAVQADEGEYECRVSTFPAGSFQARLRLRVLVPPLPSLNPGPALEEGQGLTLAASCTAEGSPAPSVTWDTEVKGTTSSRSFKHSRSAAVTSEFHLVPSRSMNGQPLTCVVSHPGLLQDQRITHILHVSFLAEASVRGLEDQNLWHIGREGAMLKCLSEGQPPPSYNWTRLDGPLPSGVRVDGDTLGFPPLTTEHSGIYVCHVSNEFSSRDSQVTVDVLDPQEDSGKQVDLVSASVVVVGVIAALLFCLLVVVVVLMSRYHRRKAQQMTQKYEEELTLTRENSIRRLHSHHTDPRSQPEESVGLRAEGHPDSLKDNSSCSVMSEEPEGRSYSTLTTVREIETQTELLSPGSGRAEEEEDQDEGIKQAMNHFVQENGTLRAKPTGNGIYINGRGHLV

[4] = target: T5, human Nectin 2 on CHO cells (human, UniProt Q92692 32-538); assay: flow cytometry on CHO cells expressing human Nectin 2
T5 sequence: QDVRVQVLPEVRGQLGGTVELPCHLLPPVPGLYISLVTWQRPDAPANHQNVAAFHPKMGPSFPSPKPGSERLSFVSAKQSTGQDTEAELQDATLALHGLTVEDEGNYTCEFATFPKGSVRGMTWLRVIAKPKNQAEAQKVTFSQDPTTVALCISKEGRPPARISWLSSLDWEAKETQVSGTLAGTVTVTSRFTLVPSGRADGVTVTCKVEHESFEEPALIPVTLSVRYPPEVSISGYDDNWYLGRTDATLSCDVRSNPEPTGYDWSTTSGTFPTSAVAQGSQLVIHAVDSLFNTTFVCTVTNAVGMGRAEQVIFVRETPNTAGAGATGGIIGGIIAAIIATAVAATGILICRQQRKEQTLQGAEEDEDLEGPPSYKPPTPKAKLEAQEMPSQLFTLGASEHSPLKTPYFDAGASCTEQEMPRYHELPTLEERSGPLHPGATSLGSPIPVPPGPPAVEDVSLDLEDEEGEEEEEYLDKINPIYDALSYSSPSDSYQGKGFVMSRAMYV
Experimental: as §1, §2

B1: antibody 6A7 (antibody, human IgG1, V domains shown)
VH: QVQLKESGAELVKPGASVKLSCKASGYTFTSYWMHWVKQRPGHGLEWVGEIDPSDSYTNYNQKFKGKATLTIDKSSSTVYMQLSSLTSEDSAVYYCARSGNYDAMDYWGQGTSVTVSA
VL: DIVMTQAAFSSAVTLGTSASISCRSSKSLLHSNGITYLYWYLQKPGQSPHFLIYQMSNLASGVPDRFTSSGSGTDFTLRISRVEAEDVGVYYCAQNLELPWTFGGGTKLEIK
notes: also called CHG1-M-4N4-6A7
binding result [1]: no binding | binding result [2]: no binding | binding result (human Nectin-4 Mutant 7): no binding | binding result [3]: binds | binding result [4]: no binding

From patent US20240325557A1 (INNATE PHARMA, published 2024)
